According to US12258584B2, “Methods and systems for converting precursor cells into intestinal tissues through directed differentiation” (Children's Hospital Medical Center, priority 2010, dated 2025):

What was measured:
hESCs and iPSCs = experiment: Definitive endoderm induction, SOX17/FOXA2 immunofluorescence; format: cell-based, human; conditions: ActivinA 100 ng/ml for 3 days
Protocol: Differentiation of PSCs into Definitive Endoderm (DE). Differentiation into Definitive Endoderm was carried out as previously described. Briefly, a 3 day ActivinA (R&D systems) differentiation protocol was used. Cells were treated with ActivinA (100 ng/ml) for three consecutive days in RPMI 1640 media (Invitrogen) with increasing concentrations of 0%, 0.2%, 2% HyClone defined FBS (dFBS) (Thermo Scientific).
Directing Hindgut Development of PSCs. As a first step to generating intestinal tissue, nodal-related TGFβ molecule activinA was used to promote differentiation of PSCs into DE as previously published. […]
FIGS. 6a and 6b illustrate exemplary embodiments in accordance with the present invention, depicting characterization of DE formation from hESC and iPSC lines by immuno-fluorescence (IF) and Microarray analysis. […] (b) Transcriptional profile of DE induction. hESC-H9 and iPSC lines 3.5, 3.6 and 3.12 were analyzed before and after DE formation (activin differentiation) by Affymetrix DNA microarray analysis.
Tissues were fixed for 1 hour to overnight in 4% paraformaldehyde or 3% glutaraldehyde for transmission electron microscopy (TEM). […] Slides were washed and mounted using Fluormount-G. Confocal images were captured on a Zeiss LSM510 and Z-stacks were analyzed and assembled using AxioVision software. […]

[1] = tested on: H9-HES cells differentiated into definitive endoderm; experiment: Posteriorization of definitive endoderm: foregut (ALB, PDX1) and hindgut (CDX2) marker expression by RT-qPCR and immunofluorescence; format: cell-based, human
Protocol: Differentiation of DE in Permissive Media (Differentiation Protocol for FIG. 1). After differentiation into definitive endoderm, cells were incubated in DMEM/F12 plus 2% defined fetal bovine serum (dFBS) with either 0, 50, or 500 ng/ml of FGF4 and/or 0, 50, or 500 ng/ml of Wnt3a (R&D Systems) for 6, 48, or 96 hours. Cultures were then grown in permissive media consisting of DMEM plus 10% fetal bovine serum (FBS) for an additional 7 days.
FIGS. 1a through 1d illustrate exemplary embodiments of the present invention. FGF4 and Wnt3a act synergistically in a temporal and dose-dependent manner to specify stable posterior endoderm fate. ActivinA (100 ng/ml) was used to differentiate H9-HES cells into definitive endoderm (DE). DE was treated with the posteriorizing factors FGF4 (50, 500 ng), Wnt3a (50, 500 ng) or both for 6, 48 or 96 hours. Cells were then cultured in a permissive medium without growth factors for an additional seven days and analyzed for expression of foregut markers (ALB, PDX1) and the hindgut marker (CDX2) by RT-qPCR (a) and immunofluorescence (b-d). FGF4/Wnt-mediated changes in marker expression in (a) is relative to 3-day activin treated DE cultures that were grown for identical lengths of time in the absence of FGF4 or Wnt3a (control). […] Error bars denote standard deviation of triplicates. Significance is shown by; * (p<0.05), ^ (p<0.001), # (p<0.0001).
FIGS. 7a and 7b illustrate exemplary embodiments in accordance with the present invention, depicting time and concentration dependent induction of CDX2 by FGF4 and Wnt3a. (a) FGF4 and Wnt3a up-regulate CDX2 in a concentration dependant manner. 3-day ActivinA treated hESCs were treated for 48 hours with Wnt3a at 50 ng/ml or 500 ng/ml or FGF4 at 50 ng/ml or 500 ng/ml, or increasing concentrations of FGF4+Wnt3a. Cells were analyzed after 48 hours of treatment. […] CDX2 expression was normalized to the internal control beta-tubulin, and is shown relative to a 48 hour control cultured in the absence of growth factors. (b) FGF4 and Wnt3a up-regulate CDX2 in a time dependant manner. 48 hours of exposure to FGF4+Wnt3a was required for the most robust induction of CDX2. All time points shown are set relative to a 0 hour no growth factor control. 500 ng/ml of FGF4, Wnt3a or FGF4+Wnt3a was used for all time points. Note that 24 hour and 48 controls, in the absence of growth factors, show a significant and spontaneous up-regulation of CDX2. Error bars denote standard deviation of triplicates. Significance is shown by; * (p<0.05)
RNA was isolated using the Nucleospin II RNA isolation kit (Clonetech). […] Finally, qPCR was carried out using Quantitect SybrGreen MasterMix (Qiagen) on a Chromo4 Real-Time PCR (BioRad). […]

[2] = tested on: definitive endoderm from human embryonic and induced pluripotent stem cells; experiment: Foregut/hindgut patterning of definitive endoderm by WNT, FGF, BMP and RA signaling (Cdx2, Sox2, HHex, Cerberus expression); format: cell-based
Protocol: Following definitive endoderm (DE) induction with activin (100 ng/ml) for 3 days, a 2-4 day treatment was performed with the indicated combination of factors: Wnt3a (500 ng/ml) and Fgf4 (500 ng/ml), Retinoic acid (RA) in a range of 0.2-20 μM the BMP antagonist Noggin (50 ng/ml), the WNT antagonist […] (1-500 ng/ml).
In particular, FIGS. 14B and 14D depict the activation of FGF/WNT/BMP signaling promotes posterior/hindgut fate as indicated by expression of Cdx2. […] Activation of FGF/WNT/BMP signaling represses foregut fate as indicated by expression of Sox2 (FIG. 14C).
The effects of Retinoic Acid in promoting hindgut differentiation in a BMP dependent manner (FIGS. 15A-15D). […] Similar comparison was also performed by immunostaining (FIGS. 15C and 15D). Activation of RA signaling promotes posterior/hindgut fate as indicated by expression of Cdx2 and represses foregut fate as indicated by expression of Sox2. Immunostaining in FIG. 15C is quantified in FIG. 15D using an automated cell counting program.

intestinal organoids = experiment: Intestinal regionalization of hindgut spheroids in 3D matrigel culture with BMP or noggin; format: cell-based, human; conditions: added after the hindgut stage to EGF/Rspondid1 containing media; organoids analyzed after 28 days
Protocol: For investigating the impact of BMP signaling on intestinal regionalization after hindgut formation, hindgut spheroids were plated in matrigel and BMP or noggin were added to EGF/Rspondid1 containing media. Intestinal organoids were analyzed after 28 days.

B1: ActivinA: nodal-related TGFβ molecule (R&D systems) used to differentiate PSCs into definitive endoderm (protein, UniProt P08476 311-426, looked up)
Inhibin beta A chain: GLECDGKVNICCKKQFFVSFKDIGWNDWIIAPSGYHANYCEGECPSHIAGTSGSSLSFHSTVINHYRMRGHSPFANLKSCCVPTKLRPMSMLYYDDGQNIIKKDIQNMIVEECGCS
For B1, the “cells co-expressing the DE markers SOX17 and FOXA2” value (hESCs and iPSCs) was 80-90%, the “cells co-expressing the DE markers SOX17 and FOXA2” value (hESCs and iPSCs; listed as Activin) was “up to 90%” and the “competence of DE cultures to form foregut and hindgut lineages” value ([1]; activinA for only 3-days, then seven days in permissive conditions) was “competent to develop into both foregut (Albumin+ and Pdx1+) and hindgut (Cdx2) lineages”. The “competence of DE cultures to form foregut and hindgut lineages” value ([1]; prolonged activin treatment for 4-5 days) was “intrinsically anterior in character and not as competent to form posterior lineages”.

B2: Noggin: the BMP antagonist Noggin (R&D Systems) (protein, UniProt Q13253 28-232, looked up)
Noggin: QHYLHIRPAPSDNLPLVDLIEHPDPIFDPKEKDLNETLLRSLLGGHYDPGFMATSPPEDRPGGGGGAAGGAEDLAELDQLLRQRPSGAMPSEIKGLEFSEGLAQGKKQRLSKKLRRKLQMWLWSQTFCPVLYAWNDLGSRFWPRYVKVGSCFSKRSCSVPEGMVCKPSKSVHLTVLRWRCQRRGGQRCGWIPIQYPIISECKCSC
In the case of B2, the “Wnt/Fgf-induced Cdx2 expression” value ([2]; Noggin 50 ng/ml with Wnt3a 500 ng/ml and Fgf4 500 ng/ml, 2-4 day treatment after DE induction) is reported as “completely abolishes the Wnt/Fgf-induced Cdx2 expression”, the “Retinoic acid (RA)-induced posteriorization, Cdx2 expression” value ([2]; addition of Noggin to Retinoic acid treatment) is reported as “potently inhibits Cdx2 expression” and the “hindgut and foregut fate (Cdx2, Sox2 expression)” value ([2]; repression of BMP signaling with noggin) is reported as “suppresses hindgut fate and promotes foregut fate”. The regional intestinal fate (intestinal organoids) was “promotes a proximal intestinal fate (duodenum/jejunum)”.
